Data reported in patent US20230340152A1 (published 2023).

Assays:
Human CD73 ECD [1] = target: T1, Human CD73 ECD (human, UniProt P21589 27-549); test: SPR (Proteon)
T1 construct: Biotinylated in some assays; also called human CD73 extracellular domain; huCD73
T1 sequence: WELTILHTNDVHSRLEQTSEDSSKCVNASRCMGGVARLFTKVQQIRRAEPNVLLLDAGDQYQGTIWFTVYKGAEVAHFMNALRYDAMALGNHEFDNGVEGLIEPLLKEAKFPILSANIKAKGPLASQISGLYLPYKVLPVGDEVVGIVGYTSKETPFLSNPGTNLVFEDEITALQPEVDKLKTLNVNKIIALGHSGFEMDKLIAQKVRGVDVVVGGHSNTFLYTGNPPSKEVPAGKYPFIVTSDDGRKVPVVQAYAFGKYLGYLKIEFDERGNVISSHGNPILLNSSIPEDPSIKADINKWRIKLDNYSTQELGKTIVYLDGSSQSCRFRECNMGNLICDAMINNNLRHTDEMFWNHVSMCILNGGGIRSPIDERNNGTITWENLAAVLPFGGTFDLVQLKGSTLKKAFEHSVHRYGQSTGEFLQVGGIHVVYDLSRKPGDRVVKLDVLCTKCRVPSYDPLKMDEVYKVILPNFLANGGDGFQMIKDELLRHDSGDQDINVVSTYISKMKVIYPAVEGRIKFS

Murine CD73 ECD [2] = target: T2, Murine CD73 ECD (murine, UniProt Q61503 29-551, limits assumed); test: SPR (Proteon)
T2 construct: extracellular domain; In-house recombinant ECD; also called murine CD73 extracellular domain; muCD73
T2 sequence (looked up): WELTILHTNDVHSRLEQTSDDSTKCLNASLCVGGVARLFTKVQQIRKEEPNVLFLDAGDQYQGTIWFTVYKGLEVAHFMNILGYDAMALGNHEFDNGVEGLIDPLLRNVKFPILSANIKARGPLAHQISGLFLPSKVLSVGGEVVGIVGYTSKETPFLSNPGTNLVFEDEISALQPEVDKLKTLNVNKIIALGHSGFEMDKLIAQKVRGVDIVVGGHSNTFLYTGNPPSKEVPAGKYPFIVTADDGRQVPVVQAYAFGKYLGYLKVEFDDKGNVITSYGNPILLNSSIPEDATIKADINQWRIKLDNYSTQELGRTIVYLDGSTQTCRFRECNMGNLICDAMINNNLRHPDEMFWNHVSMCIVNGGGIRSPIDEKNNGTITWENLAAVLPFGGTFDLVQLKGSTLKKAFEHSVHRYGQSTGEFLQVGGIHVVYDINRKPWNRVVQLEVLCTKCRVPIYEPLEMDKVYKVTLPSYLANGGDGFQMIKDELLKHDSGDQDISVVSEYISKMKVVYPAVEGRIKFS

Cynomolgus CD73 ECD [3] = target: T3, Cynomolgus CD73 ECD (cynomolgus, UniProt A0A2K5V5U7 27-549); test: SPR (Proteon)
T3 construct: extracellular domain; also called cyno CD73
T3 sequence: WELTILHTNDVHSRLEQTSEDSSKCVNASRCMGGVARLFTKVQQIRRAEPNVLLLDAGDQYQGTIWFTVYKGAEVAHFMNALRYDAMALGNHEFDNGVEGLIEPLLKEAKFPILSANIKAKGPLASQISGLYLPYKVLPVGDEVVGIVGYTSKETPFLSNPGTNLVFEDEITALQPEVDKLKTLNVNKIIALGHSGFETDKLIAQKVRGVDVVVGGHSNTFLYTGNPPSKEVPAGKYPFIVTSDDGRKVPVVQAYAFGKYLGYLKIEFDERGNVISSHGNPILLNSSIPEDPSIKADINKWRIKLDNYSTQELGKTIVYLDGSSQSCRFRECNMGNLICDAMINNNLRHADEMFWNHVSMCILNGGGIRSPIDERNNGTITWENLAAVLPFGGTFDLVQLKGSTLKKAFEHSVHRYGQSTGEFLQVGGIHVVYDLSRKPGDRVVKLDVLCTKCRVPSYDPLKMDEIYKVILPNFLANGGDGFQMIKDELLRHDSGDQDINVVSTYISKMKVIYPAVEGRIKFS

[4] = target: T4, Human CD73 on cells (MDA-MB-231, Jurkat CD73 knock-in, NCI-H322) (human, UniProt P21589 27-549); test: cell-based or functional assay
T4 sequence: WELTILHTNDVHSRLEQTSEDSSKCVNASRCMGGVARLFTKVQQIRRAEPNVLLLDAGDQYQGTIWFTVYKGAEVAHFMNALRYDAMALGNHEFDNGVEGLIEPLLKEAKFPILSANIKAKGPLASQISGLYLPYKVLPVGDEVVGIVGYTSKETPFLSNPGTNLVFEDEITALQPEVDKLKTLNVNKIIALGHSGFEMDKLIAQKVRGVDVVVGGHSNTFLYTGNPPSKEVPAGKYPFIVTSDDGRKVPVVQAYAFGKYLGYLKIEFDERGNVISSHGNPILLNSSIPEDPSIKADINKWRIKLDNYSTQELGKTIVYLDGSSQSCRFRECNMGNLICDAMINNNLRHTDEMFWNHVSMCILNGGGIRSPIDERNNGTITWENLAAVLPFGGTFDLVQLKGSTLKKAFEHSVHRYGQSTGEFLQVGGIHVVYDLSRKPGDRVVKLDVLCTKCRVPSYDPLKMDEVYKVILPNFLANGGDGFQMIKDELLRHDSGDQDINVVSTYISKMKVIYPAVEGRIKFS

[5] = target: T5, Murine CD73 on cells (4T1, Jurkat mCD73 knock-in) (murine, UniProt Q61503 29-551); test: cell-based or functional assay
T5 sequence (looked up): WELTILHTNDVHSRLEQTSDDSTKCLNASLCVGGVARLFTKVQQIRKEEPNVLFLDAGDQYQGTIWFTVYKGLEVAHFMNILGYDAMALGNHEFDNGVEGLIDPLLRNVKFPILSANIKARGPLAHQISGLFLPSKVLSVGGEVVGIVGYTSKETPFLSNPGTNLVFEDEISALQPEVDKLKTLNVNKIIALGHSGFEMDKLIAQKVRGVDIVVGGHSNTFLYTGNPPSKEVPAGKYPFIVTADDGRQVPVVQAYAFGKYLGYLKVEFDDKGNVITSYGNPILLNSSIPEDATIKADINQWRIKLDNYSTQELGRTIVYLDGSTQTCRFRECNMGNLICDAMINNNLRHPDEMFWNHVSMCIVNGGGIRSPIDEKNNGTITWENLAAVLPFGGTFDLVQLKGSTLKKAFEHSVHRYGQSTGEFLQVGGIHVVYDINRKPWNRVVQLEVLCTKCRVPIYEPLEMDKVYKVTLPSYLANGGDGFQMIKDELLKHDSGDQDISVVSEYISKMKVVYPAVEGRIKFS

Human CD73 ECD [6] = target: T1, Human CD73 ECD; test: cell-based or functional assay
[7] = target: T4, Human CD73 on cells (MDA-MB-231, Jurkat …); test: cell-based or functional assay; remark: listed apart in the source
[8] = target: T4, Human CD73 on cells (MDA-MB-231, Jurkat …); test: flow cytometry on cells
[9] = target: T5, Murine CD73 on cells (4T1, Jurkat mCD73 …); test: flow cytometry on cells
[10] = target: T6, Cynomolgus CD73 on MK-1 cells (cynomolgus, UniProt A0A2K5V5U7 27-549); test: flow cytometry on cells
T6 construct: whole, on cells; also called MK-1 (cyno)
T6 sequence: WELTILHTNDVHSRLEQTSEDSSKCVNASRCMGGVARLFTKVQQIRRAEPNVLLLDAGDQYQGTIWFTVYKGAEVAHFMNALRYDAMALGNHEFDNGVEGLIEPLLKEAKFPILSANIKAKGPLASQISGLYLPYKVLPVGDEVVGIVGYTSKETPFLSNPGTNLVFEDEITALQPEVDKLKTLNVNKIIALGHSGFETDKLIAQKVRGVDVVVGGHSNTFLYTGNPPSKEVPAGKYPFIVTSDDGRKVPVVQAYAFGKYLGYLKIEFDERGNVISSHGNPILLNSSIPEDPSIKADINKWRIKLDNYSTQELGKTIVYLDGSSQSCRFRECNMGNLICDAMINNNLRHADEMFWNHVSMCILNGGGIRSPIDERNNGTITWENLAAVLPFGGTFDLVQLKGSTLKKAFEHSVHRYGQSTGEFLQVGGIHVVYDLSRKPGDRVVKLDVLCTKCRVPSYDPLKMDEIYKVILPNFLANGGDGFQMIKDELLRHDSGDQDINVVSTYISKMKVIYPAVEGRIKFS

Human CD73 ECD [11] = target: T1, Human CD73 ECD; test: binding assay, format not stated
Murine CD73 ECD [12] = target: T2, Murine CD73 ECD; test: binding assay, format not stated
Cynomolgus CD73 ECD [13] = target: T3, Cynomolgus CD73 ECD; test: binding assay, format not stated
[14] = target: T4, Human CD73 on cells (MDA-MB-231, Jurkat …); test: flow cytometry on MDA-MB-231 cells, IgG from 293F cells

B1: CD730002 (antibody, V domains shown)
VH: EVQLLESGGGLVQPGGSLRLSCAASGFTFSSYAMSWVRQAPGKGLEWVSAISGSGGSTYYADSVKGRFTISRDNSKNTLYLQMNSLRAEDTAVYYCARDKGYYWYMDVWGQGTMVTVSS
VL: QSVLTQPPSVSVSPGQTATITCSGDKVGDKYASWYQQKPGQSPVLVIYEDTKRPSRIPERFSGSNSGNTATLTISGTQALDEADYFCQAWDTSFWVFGGGTKLTVL
notes: IgG1-TM format; also called CD730002 antibody; clone 2
Kd (Human CD73 ECD [1]): 0.007 nM | Kd (Murine CD73 ECD [2]): 0.04 nM | Kd (Cynomolgus CD73 ECD [3]): 0.015 nM | FabZAP internalization, EC50, MDA-MB-231 [4]: 0.0071 nM | FabZAP internalization, maximum toxicity, MDA-MB-231 [4]: 95% | FabZAP internalization, EC50, 4T1 [5]: 0.206 nM | FabZAP internalization, maximum toxicity, 4T1 [5]: 83% | Enzyme Inhibition, rCD73, 1/EC50 (nM) (Human CD73 ECD [6]): 0.021 nM⁻¹ | Enzyme Inhibition, MDA-MB-231, 1/EC50 (nM) [7]: 12 nM⁻¹ | Internalization, MDA-MB-231, 1/EC50 (nM) [7]: 0.021 nM⁻¹ | Kd [8]: 0.052 nM | Kd [9]: 0.05 nM | Kd [10]: 0.052 nM | 1/EC50 (Human CD73 ECD [11]): 0.1 nM⁻¹ | 1/EC50 (Murine CD73 ECD [12]): 0.024 nM⁻¹ | 1/EC50 (Cynomolgus CD73 ECD [13]): 0.2 nM⁻¹

B2: CD730002 2C5 (antibody, V domains shown)
VH: EVQLLESGGGLVQPGGSLRLSCAASGFTFSSYAMSWVRQAPGKGLEWVSAISGSGGSTYYADSVKRRFTISRDNSKNTLYLQMNSLRAEDTAVYYCARDKGYYWYMDVWGQGTMVTVSS
VL: QSVLTQPPSVSVSPGQTASITCSGDKVGDKYASWYQQKPGQSPVLVIYEDTKRLSGIPERFSGSNSGNTATLTISGTQAMDEADYYCQAWDTSFWVFGGGTKLTVL
notes: IgG1-TM format; also called clone 2C5 antibody
Kd (Human CD73 ECD [1]): 0.009 nM | Kd (Murine CD73 ECD [2]): 0.022 nM | Kd (Cynomolgus CD73 ECD [3]): 0.009 nM | FabZAP internalization, EC50, MDA-MB-231 [4]: 0.0091 nM | FabZAP internalization, maximum toxicity, MDA-MB-231 [4]: 98% | FabZAP internalization, EC50, 4T1 [5]: 0.173 nM | FabZAP internalization, maximum toxicity, 4T1 [5]: 82% | Kd [8]: 0.084 nM | Kd [9]: 0.055 nM | Kd [10]: 0.063 nM | fold lower EC50 than parental CD730002SGMY [14]: 3 fold

B3: CD730042 (antibody, V domains shown)
VH: GVQLVQSGGGLVQPGGSLRLSCAASGFTFSSYGMHWVRQAPGKGLEWVAVISYDGSIKYYADSVKGRFTISRDDSKNALYLQMNSLRAEDTAVYYCSTLSGSYGYFDYWGRGTLVTVSS
VL: QSVLTQPASVSGSPGQSITISCAGTSSDVGGYNYVSWYQQHPGKAPKLMIYEGSKRPSGVSNRFSGSKSGNTASLTISGLQAEDEADYYCSSYTTRSTRVFGGGTKLTVL
notes: IgG1-TM format; also called CD730042 antibody
Enzyme Inhibition, rCD73, 1/EC50 (nM) (Human CD73 ECD [6]): 0 nM⁻¹ | Enzyme Inhibition, MDA-MB-231, 1/EC50 (nM) [7]: 0.0032 nM⁻¹ | Internalization, MDA-MB-231, 1/EC50 (nM) [7]: 0 nM⁻¹ | 1/EC50 (Human CD73 ECD [11]): 0.0017 nM⁻¹ | 1/EC50 (Cynomolgus CD73 ECD [13]): 0.0014 nM⁻¹

B4: 73combo1 (C1+GRVE+HPT) (antibody, V domains shown)
VH: EVQLLESGGGLVQPGGSLRLSCAASGFTFSSYAYSWVRQAPGKGLEWVSAISGSGGSTYYADSVKGRFTISRDNSKNTLYLQMNSLRAEDTAVYYCARLGYGRVDEWGRGTLVTVSS
VL: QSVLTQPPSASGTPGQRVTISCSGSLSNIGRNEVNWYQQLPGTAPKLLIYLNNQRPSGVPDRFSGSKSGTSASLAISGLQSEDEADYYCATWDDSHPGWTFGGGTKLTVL
notes: IgG1-TM format; also called 73combol; clone 10 combo1
Kd (Human CD73 ECD [1]): 0.007 nM | Kd (Murine CD73 ECD [2]): 0.002 nM | Kd (Cynomolgus CD73 ECD [3]): 0.008 nM | FabZAP internalization, EC50, MDA-MB-231 [4]: 0.0038 nM | FabZAP internalization, maximum toxicity, MDA-MB-231 [4]: 97% | FabZAP internalization, EC50, 4T1 [5]: 0.0331 nM | FabZAP internalization, maximum toxicity, 4T1 [5]: 97% | Kd [8]: 0.157 nM | Kd [9]: 0.15 nM | Kd [10]: 0.09 nM

B5: CD730008 (antibody, IgG1, V domains shown)
VH: EVQLLETGGGLVQPGGSLRLSCAASGFTFSSYAMSWVRQAPGKGLEWVSAISGSGGSTYYADSVKGRFTISRDNSKNTLYLQMNSLRAEDTAVYYCARGNYGNLDHWGKGTLVTVSS
VL: QSVLTQPPSVSVSPGQTASITCSGDKVGDKYASWYQQKPGQSPVLVIYQDRKRPSGIPERFSGSNSGNTATLTISGTQPMDEADYYCQAWDSSHWVFGGGTKLTVL
notes: IgG1-TM format; also called CD730008 antibody
Enzyme Inhibition, rCD73, 1/EC50 (nM) (Human CD73 ECD [6]): 0 nM⁻¹ | Enzyme Inhibition, MDA-MB-231, 1/EC50 (nM) [7]: 0.11 nM⁻¹ | Internalization, MDA-MB-231, 1/EC50 (nM) [7]: 0 nM⁻¹ | 1/EC50 (Human CD73 ECD [11]): 0.0011 nM⁻¹ | 1/EC50 (Murine CD73 ECD [12]): 0.00058 nM⁻¹ | 1/EC50 (Cynomolgus CD73 ECD [13]): 0.0011 nM⁻¹
